Measured values taken from publication PMC3772987.

B1: FPospAB (dsDNA)
DNA 1: TAATCTTATAATATAATTATACTT
DNA 2: AAGTATAATTATATTATAAGATTA
B2: FPospD (dsDNA)
DNA 1: ATAATTGATATTAAAATATAATTGAT
DNA 2: ATCAATTATATTTTAATATCAATTAT

Tests used:
His6-BosR = His6-BosR (Borrelia burgdorferi B31, UniProt O51592 2-176); experiment: fluorescence anisotropy
BosR tag-free = BosR tag-free (Borrelia burgdorferi B31, UniProt O51592 1-176, M1R); experiment: fluorescence anisotropy

Binder	Kd (His6-BosR) [nM]	Kd (BosR tag-free) [nM]
B1	222	307
B2	262	332
